Assay results from the domain aggregation screens of Martell et al. (2025).

Test: soluble fraction after stress (log2 fold change); higher = more stays soluble; pooled small domains, quantitative proteomics
Conditions: stress: pH 4
Method in brief: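 Values are on a log2 scale, where higher means more of the domain stayed soluble after pH 4 stress. They are fold changes in the soluble amount of each domain from pooled custom libraries, measured by high-throughput quantitative proteomics. The fold change is taken to reflect aggregation propensity.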

| Sequence | soluble fraction (log2) |
| --- | --- |
| HMQISDAGALLDAVRRVLAENPAQVEQFRAGKEKVMGFLVGQVMRATGGKANPQMLNDVLREELS | 0.198 |
| HMQADKYKSYTATDFLKDKDFLRWQLFNGEEDMLFWGRVIEEYPALRSRVEEGIVLYKDNIR | -1.18 |
| HMWTPLVVAVLIGGTHRFGELRAAVGGITPKVLTETLRSMERDGLVVREQTPGVPPRVDYALTPLGA | -0.191 |
| HMLTPQEIGSRLKLVRQGLQLKQQEVAEIIGTSQLKISKIEQGATVTTPDFLKLLAFYSQSVSLDILF | -0.652 |
| HMTAFSEQLIKLRKQKGLSQEQLGAAVGVTRQTVSKWELGDTTPELGKLVQLSDYFQLSIDELVGH | 0.177 |
| HMKSEIRKKNSQIILDAAEHEFSVHGYRGTSVQMIADRSGLPKANLHYYYKSKSALYGAVLDRIL | 0.109 |
| HMSMSKISNLLEIMMIIQYKGLTTASELAQSLGVDKKTVYRYINSLSKANIPIYTKKGRYGGFYIDKNF | 0.138 |
| HMRLLGEPLAGRLKKDVPVVTGRSTESKAIAQFFELRWSHLPDPEARTISVASGRIDFMDVGATRFSLR | 0.124 |
| HMNTAALSLQRRNEIKKWLLEEKTLTVAALSNRFNVTYETIRRDLEILEKEGFLKKVYGGAALNERV | 0.244 |
| HMLEASVYTAEKSGDRLDAFLAEQAGITRSYAQKLIEGGQVTLGGVVPKKNYKLSAGEQVELILPEN | -0.00206 |
| HMSAPAKKPKIKVDLSKVHAGTIVRHKGYGLGQVKGIDGAIIVVTFDGVDKKFQFPGGFENGFLFLTED | -1.21 |
| HMEYSNLGEALRRLSEIDLQIILLKYSHGFSIKEISKILDIKEVNLYKRNKRALNKLKKILAEMEVLSN | -0.272 |
| HMSSQWWYSAGGERKGPVDFATLRGLYVQGAIDGRTLAWREDMQGWEAVNDIPDLEPLRRAVPPEL | 0.11 |
| HMKHVENLSDEKTIQAIQENPYMQYLLGLSKFTEKPVFVPELFVLIRKRLDQDFFNMLTLILAEADG | -0.778 |
| HMKNLTERQQRIIALISENPQTTRAEIAGAIGVATKTIERELTTLSNIVYYVGPKKGGHWEIIK | 0.333 |
| HMNHHTEQQLKALSNKVKDHRMRMRLLAVAHFKAGKNKADVARTLNVSRRMVNEWVANYFKGGVSALES | -0.047 |
| HMNDMWADITINANGKATLVVHTHEIKYLGLTGHLGKMEINGTAKEPVKDSSGDVVDYYFTFTDLDASMF | -0.623 |
| HMLYDNQLPDWAGQMVKNHGLTISPKALVILVDHIGNDLSRIENEIEKLMLNLGTRKSITEDDVEN | -1.34 |
| HMDVLKVFSHNVRRYRTQLGLSQETVAFRTGLHRTYISAVERGKRSISLDNIQKIADALEVETYLLFI | 0.22 |
| HMRSAKEYKAIREEIYRFIGAYITKHVYAPSNKEIAEAVGISGTTVHRHLIDMIDEGILETD | -1.29 |
| HMPLNAHIVGRGKRDRRGKRGAPYSIVLELGRDENGKRIQKWYSGYPTKAAAEEDKIRMLRELQTGEYVPQ | 0.153 |
| HMNNILNYTIAELMEILKIDDLETENVINSSNNLINKSINENNFPLAEFYEDVKNNLIEFIETFDS | -1.08 |
| HMVELNDNEKIVYDILKETEKIHIDELTAKVQLTQSILSGALVQMEMKGMIVSLPGKMYKLL | -1.53 |
| HMPVFSAEQVAKAEADVQKVANKVQEAGADVEKLTTIHNWLLAREKYMPPDLFSTANQIIATAFQKAG | 0.279 |
| HMVVVMNADAEADEIKRVKWNLEQMLFRTQVIYGVKRIVIGAIGDQREVDLSEIEQMPKVDKIVRISK | -1.39 |
| HMNEFNEVVPDSLEGERLDRLLAFIGNISRSEASNIIKGGEVLINGKVVTRPSFKVTLGNRVEFSIRD | -0.19 |

| Sequence | soluble fraction (log2) |
| --- | --- |
| HMDLFLVYQFIRRLATPFTEWKAHELGIIDDKGVQLKKRRDFTTREEKDAYGIFDIMITKLKRLIEKV | -1.04 |
| HMEEDPVIAAQRFLNIFRQLHIFTAAKRKEFDELLLKQPASVKGMFASLPGGSVLQEYVNNLEQNAG | -0.0952 |
| HMGPAYEKIVANGQTFYRYNVKKGEGLMAVSRTFNVSVNDILKYNPSAASGLKDGQELLIPVIDDA | -0.29 |
| HMPPLVLRGVVMGADGARLAILAQGEAGAALGIGETWKEYTLRSVTDQSATLEHRSGTITLTR | -0.437 |
| HMAELTTVQAADILHVSRPFLIKLLDEGQIPYHRVGKHRRIRMEDVMNYKRAIDQQREAVLDQLVAEA | 0.014 |
| HMAKSKYETHVLPNLDKIIKWAKAGATAKEIAANLHIAYSTFRKYLDEGQEGDERYAALSAAFAQA | 0.22 |
| HMTVKKLTINEDNSGRRIDNYLLSIFNSLPRSKIYNIIRKGEVRVNSSRIKPNYRLEQGDLVRIPPNLEFT | 0.0853 |
| HMLPKAERREQLMAVARSVFAEQGYHTTSMEIIAETAGVSKPLLYQHFPSKLDLYLALLDAGID | -1.1 |
| HMDSDMGQQLKTLLTVGTFMSSKELKAIAQQLGLKKPTDLKEWVELESGTQRIEGKPTKGYWIKMNDINN | -0.288 |
| HMERPPHELLSDREYQTMVMIASGRTLTQIAEEMSLSPKTVSVYRARLLEKMKLKNNAELTHYALKHKLV | -0.2 |
| HMNEKGTNSTINEITRISKPGRRVYVGSAEIPKVKSGRGLVLISTSKGVMTGAEAAKAKLGGELLLKV | 0.129 |
| HMKRLLLPGDLAGVRRHLLDRENSFHILRVLRLARGSTIEAMDDAGNRFSATLAGVKAGRALFDLAAKI | -0.245 |
| HMTQEHDESVNLGKRLLDQALSRFGTSYRQLKKSEIKRILQSSGASTFKYILHQIGLGNRVPLAIANLIV | -0.0152 |
| HMETKPTELMLEVHELRIGMFVHLDLGWMDHPFPLNRFKISTNSQIEQIKGLRLKQVKVMTALSDPTALS | -1.25 |
| HMTGVPYLVRVKITDLHIRSGPGTNYASKGFIAPGAYTIVEESTGQGAALWGKLKSGKGWIALGYTEK | 0.0451 |
| HMPAEEVPLYKAVVVTTPPNRLRVRFSPAGDFKRWLQSGEEVDVYQELGDWRRIEPNGWSSAEWLQRVG | 0.00708 |
| HMSLLQTRQRHEALAALGFFKGDVAAEWSAASTEALRAAQASLGIRVDGKWGPQTEDAIGKALAERQG | 0.108 |
| HMIVPPAIPFRALGIFGPRDRPIVTFEDGPRLINAREGDVLDGRFILRRVGRESVDFAFVGLPPEITRRIP | -0.608 |
| HMAKQQTTTTAHVVTTGETLYSIAQKNGISVEELKKSNNITSDKLRPGQTLHITKVSKTSSTAK | 0.129 |
| HMPDLSMLDEVLDEYRSQAGSLVTVLQKAQDLYGYLPLTILRHIAEEMNIKPAQVYGVATFYTQFRL | -0.866 |
| HMNQKKFIQADYEDRLFDHLAFEVKDMEKIISMMRREKFTITDEPFRLSPTGSLIAFVEDPDRTLIELIER | -0.522 |
| HMFPELDEEEQKITKLLQAQNDLPANIIAVKTALNIGTTQAKLFSLEMKGVVKPYAGGFYHLL | 0.0183 |
| HMDITGIGIKKRIKAIIDSEDKKNPLSDTQIVEILKNEGLEISRRTVAKYRSDLQIPSSSKRKK | 0.335 |
| HMSDDLLTGLDAYSRGDWTTATASFERVLTTADPNNRTEALYWLVMSETSAQNYQRALNYANTFL | -0.887 |
| HMRSSNEAVSQRRDKILDYISATGRTSTEIVAKEFGVSVMTARRDLLYLMEKRLISKSSSGLFKVDNN | 0.408 |
| HMGRELSDLELSLLRILDDKIPLLIDEAADRLQLPVAQVLSAVTIMEIDGLIRREGMRKYLRTVEVEETK | -1.3 |

| Sequence | soluble fraction (log2) |
| --- | --- |
| HMESRDRVRQASAAGYRFMSTMAGHEPGFEEASRALFAGDQTAFEARITAWPVDVQTHLKKILAEAFTT | -0.939 |
| HMGRRRAAPQEPLRQFPASPVTGQPIKLLLGQYGPYVTDGTTNASLPKGSSPDELTFEQATQLLAERALRG | 0.0322 |
| HMEDPKLAQLTEQERKILDLIADGLTNRQIAEKMFLAEKTVKNYVSTILAKMGMSNRSEAAAYVARLEAG | -0.292 |
| HMAADWTAIKLAYVNGGMSMRELAQRFHVGAAGLMKRAAKEGWEAERQQNSAKVSNAAQMLIN | 0.125 |
| HMKLTPKQQQIYDFISSFADEHGYPPSVREIAQAVNLKSPATVHFHLKGLREAGYISQAEGKTRAITI | -0.136 |
| HMTPDLSEFKERLRQILPGEPIEVRTANDGIVLSGTVTSIAALDRALDLAERYAPDKVSNLLSVG | 0.365 |
| HMFVVVPDLIGKTINQFEEDLSELNLKYVVSDSGNFNPEFKINAVLDQSPKANSKVKDGRKIYLTLNAS | -0.324 |
| HMDKNNLLIIYRTNSEGTPYAFSVTPSAKSLDALHKDAKEMLPFLEKSMNNFFSIQIWERAEYLKY | -0.379 |
| HMPMTDYQLIRSNRRTIALQITRDARVVVRAPLYASEADIRRFVESHRAWIESHLDRQRARTD | 0.201 |
| HMNERLKQLRLSLNLNQEEFGKWLGISKSGVSDIESGRRKVTEQHIIMLSNHNISEKWLRTGEGEMFV | 0.0158 |
| HMIIVMKRNATETQIDHVVRWVESIGYRAHRSNGTEQTVVKAVGGERGGEELKYLAALSGVEKVVPIR | 0.141 |
| HMQDENAVTYLLEIKNADANDIASVLKTLKSPDADVVVYKTLNMIIFTGQGSEINGLVKVARQLDRK | -1.3 |
| HMTFSDKIRELRKQKGVSQAVVAEYLGITKQAYSLYETGKREPDFDSLLKLAEYFGTDTDSLLY | -0.379 |
| HMGVSLREVPVAEHGDWIGRPIKELGIPAEVLIVLVRRADGTTVVPKGGTVLQQGDMLVVNEWEE | -1.25 |
| HMGGPTARQMEVLSLIAQGLPNKRIADELGIAERTVKLHITALLDSLGARNRTHLLVVARERGM | -0.608 |
| HMGNEVMYRQDLSEQELLSFIKKYTGQDEVTHIVVGAPKQRDNTPSPVETKITPFVVQLKAQFPDVNVV | -0.217 |
| HMSVTSEIGAKIKYFRKSKHFSLQEMADLLYKSKSTLSKYENGQISIDIETLYAIAKVLGVHVEQLLYSEP | 0.222 |
| HMSQVSTKYINVSSAYVRSKPSKDGEIVTSLIKNTDVTVTGENGDWYKIKFNNYEGYIFKELLSDSKLEE | -0.35 |
| HMAGLELVVTREQAGRTVKSLLRGELGISTALMGRLKRTGTGLTVNGTRVFTNAVLREGDRLAVDLDAAE | -0.0613 |
| HMFPDLTGDELRIVDLLNTANDLQVNIITAKTNLPISRVTSLLFQLEMKGVVKPLAGGMYHLLG | -0.117 |
| HMIEESTVPDLKGKSQEDAIKLLEDANLKYQIVEEESKKIEAGYVISQETDANKKVNAGDTVIIHVST | -0.0907 |
| HMSNYLKSVEVFDPITNKWSYVSAMKVRRGYVAVVATMDRLYAIGGYDGENYLSTVEMYNPDTN | 0.0787 |
| HMDEVPMPPEYQYLRVGSRVHHATFGWGKVTRLSQPWPQTRAEVFFENIGPKKLVLAHAHLTMD | 0.113 |
| HMHAPRIEVVQIDPEKIGALIGPGGKNIRRITEVTGANLDIDEDNSGKIRVYASDSEAMNRALQEIDLVT | -0.18 |
